In patent publication US20070031863A1:

Target: CD70 (human) (UniProt P32970)
Test: cell-based or functional assay

Chain of CD70 (human) (P32970 whole entry): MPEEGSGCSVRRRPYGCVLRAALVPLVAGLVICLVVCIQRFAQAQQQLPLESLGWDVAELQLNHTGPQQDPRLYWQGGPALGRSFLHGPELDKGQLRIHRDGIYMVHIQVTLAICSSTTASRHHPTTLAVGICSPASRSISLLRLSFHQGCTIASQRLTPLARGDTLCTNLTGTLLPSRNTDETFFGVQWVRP

anti-CD70 monoclonal antibody (HNE51) (Dako)
IgG synthesis by purified B cells stimulated with LPS (control): 125 µg/mL
